A short description of this series: soluble on expression in E. coli; label from the status in PepcDB or PDB records.
For “MNTLPDTHVREASGCPSPITIWQTLLTRLLDQHYGLTLNDTPFADERVIEQHIEAGISLCDAVNFLVEKYALVRTDQPGFSAGAPSQLINSIDILRARRATGLMTRDNYRTVNNITRGKHPEAKQ”, the “soluble on expression in E. coli” value is reported as “not soluble”. For the sequence “MSAPLPPRGRGTASNPLNRFAPTHSEAFDDGWEQDVPPIQLTEVREEIARTVISRNQSPDLPFDRSINPYRGCEHGCIYCYARPSHAYWDLSPGIDFETRLIAKSNVASALEQELSKPGYRCAPINLGANTDPYQPLERERRLTRQVLEVLLRFRHPLTIVTKGSLILRDLDLLRELAEQNLVAVMISLTTLDDELKRILEPRAAAPSARLRAIRTLSGNGIPVGVLCSPMIPMVNDMELERLLQAARDAGARSAAYMLLRLPREVGPLFEEWLAAHYPQRAEHVMSLVRQCRGGEVYDSRFGHRFRGQGPFADLLAQRFAVAMKRLGLDRREGFGLDCSRFAVPGAQMALF”, the “soluble on expression in E. coli” value is reported as “not soluble”. As to “RIRKEPPVYAAGSLEEQWYLEIVDKGSVSCPTCQAVGRKTIEGLKKHMENCKQEMFTCHHCGKQLRSLAGMKYHVMANHNSLP”, the “soluble on expression in E. coli” value is “soluble”. For the sequence “MRPKVSVALATYNGEKYIEEQLESIIKQTRAPDELVICDDCSNDETINIITKKIKNAHFDVKLVSNDKNIGYVQNFSKALEMSSGDIVFLCDQDDVWLSDKIEFIINKFNTRPDIQLLIHDVDYCKEDLTPIGQTKLQRMESNFDIESDYVVGMATAVRRSFLVHCLPVPSAPEVTHDEWLHDCARVLGCKGIVREVLALYRRHSLNVTAPSRLNVDFVTTRHYFGNESLAFLKLFRMETDLGSPDISPLVQWLDSRKMVLLDNGFSSEDRINTFIQYEEKRLRARNSRQSILRLDRWKRLFPIYDLYRSGGYHYYCGWKSALKDLLRTYALEHHHHHH”, the “soluble on expression in E. coli” value is listed as “soluble”. Then “MTEHLKSNTMVLPLKKGAQKMTTITLKVSEADKTFMKAMAKFEGVSLSELIRTKTLEALEDEYDARVADLAYQEYLEDLEKGVEPITWEEMMHDLGLKDE”, with “not soluble”; and “MKEYNYIFGPIPSRRMGNSLGISSIEKRSCTYSCVYCQLGRTKNLMKEPKKFFKTEDILEEFKEYLKEDVDIDVVTVVGEGEPTLSDDLEELILGLKAITDKPVAVITNGSMLVYEKVRKALKAADIVLPSLDAGDEETFRKINRPNAKIDFNKITEALVQFSKEYNGELWMETMIVKGFNDKTEELYAIRKILDRIDYDRLYINTPVRPPAESYVEEPSKEKLDEVIRILRGTSIQMLSSGTFFSEITDDFEAIKSIISRHPMNKFEVESFLNSRKCRDKEEVLRKLKNHADIDVVSYKNYTTYRLK”, with “not soluble”; and “MDSGDFSPMQSNFSLGFMSFEDIPEDARTTEMIDKIVFEEDKEYDHTQDSFRYGRVTTGVSYNLVTGKIPKTVFEQVKAKDDENDNVEFEMEHLEDKETAHKTQTFDELYESQMPKYFDYQSNFSDVNGIWTLLFDQNHYEKMSTFELQAAICAALNSKHFMMICVGIDAFNAVTGVEMSAKDRVVFRMALTRAVAGEFQPPLVKVAPKQLTGVSPMKRDISEVTSSIDVLFVPVIGVTDEVENNRFLIVVRVKGT”, with “not soluble”. The result for “MKIGFIGVGKMASAIITGLKKTDFELIISDSSLKAGQDKAEALGVAVAQSHQELVDEVDLLVLGVKPQVLASVLNPLILTKPILSMAAGTSLEYLDKLSQADLPIIRIMPNLNAKILQSSTAICRNDKVSDQLFAIAKQITDSFGTTFEIAEKDFDTFTALAGSSPAYIALFIEAMSKAGLKHGFPKDLAFKIVSQTVLATTSNLIQGQEKPNDLIDKVSSPGGTTIAGLLDLEKTGFTASTISAIDATIDKSKNMLEHHHHHH” reads “not soluble”; that for “MTFALGQRWISDTESDLGLGTVVAMDARTVTLMFAASEENRVYARNDAPVTRVTFNVGDVIDCQEGWSLKVEEVLEDEGLYTYFGTREDTQETAVVLREIFLSNQIRFNKPQDKLYAGQIDRMDNFVLRY”, “not soluble”. The result for “MAYNKEEKIKSLNRMQYEVTQNNGTEPPFQNEYWDHKEEGLYVDIVSGKPLFTSKDKFDSQCGWPSFTKPIEEEVEEKLDTSHGMIRTEVRSRTADSHLGHVFNDGPGPNGLRYCINSAALRFVPKHKLKEEGYESYLHLFNK” reads “not soluble”; that for “VTWKGSGQETVGAEPTLWAISDLHTGHLGNKPVAESLYPSSPDDWLIVAGDVAERTDEIRWSLDLLRRRFAKVIWVPGNHELWTTNRDPMQIFGRARYDYLVNMCDEMGVVTPEHPFPVWTERGGPATIVPMFLLYDYSFLPEGANSKAEGVAIAKERNVVATDEFLLSPEPYPTRDAWCHERVAATRARLEQLDWMQPTVLVNHFPLLRQPCDALFYPEFSLWCGTTKTADWHTRYNAVCSVYGHLHIPRTTWYDGVRFEEVSVGYPREWRRRKPYSWLRQVLPDPQYAPGYLNDFGGHFVITPEMRTQAAQFRERLRQRQSR”, “not soluble”.

On to “MNNYDDLPCSIYFKKPTVQEFVDQPRVFEDSEVPAFQEVLQLPQERTKPPVPSTQPIVAAVEVAKKKSCLSAPKPRKEPPSHPALRQKTVAFGKTVNVSQTVEGTSRNSKKVLASTMSAQNTTTTEEQAAENWRDAMKTELQTIRTEIQEETARRQEELNAQNLVKMQELMSNFFQKITIPKQQAIEPVEKDKENFHESPRQSRQQKPASKIASAREVIKRDGVIPPEALTIIEQRLRSDPMFRQQIDNVLADAECDANRAAYSPPPPMSEVRYGSGVNPALMRETLTVERSIRYDNGLASIDSRQWTNERRDNRAPDSYRTYEPDQPCHSLYQKGQSISYYPSEAAGKTTARNNRTGYYVEDSSDHEEDVVVNKRGQNYHEQAVPETPAERERRIREKYARRK”, for which the “soluble on expression in E. coli” value was “not soluble”. The result for “MNPNPNVKYPIEGNQNVHFIKNTITKANILVGDYSYYDAKDGETFEDRVLHHYEFLGDRLIIGKFCCIASGVTFIMNGANHRMDGFSAYPFNIFGNGWEKYTPNLSDLPYKGDTVIGNDVWIGMDATIMPGIKIGDGAIIAAKSVVTRDVAPYTIVGGNPANKIRERFSNAIIEELLQIQWWHFDIEKITENIGAIVQGNIEPLRKLKRE” reads “not soluble”.

For the sequence “MGSDKIHHHHHHMEGKVKKAFPGGNTSQGSYSFFDYIIPENVKRVFCLKGGPGVGKSSLMKKIYKEFLHRGYDIDLYHCPSDPSSLDGLVIKKLGVVLMDATAPHTMDPKLPGALDEIINLGDYWNTEELEKNKQEISVYDKDISNSFKRAFKFLKSAEPIFRDIEEKYSDCMDYGKVNLVTEEFIKRLFDGVKSTGNLKREKHLFGSAITPVGCLDYTENILKDVKKVYYLDGEIGTGKTTLLNKVYKKAIEKGLNVEVYHYPLIPEKIETVLLTDLDIGITISTTFKEEDTIDLNQFLNREKLLKYEEDIKFDEKVLDDLICWAVLNLKRAKSKHDIIESYYSPNMRFDEVGKLRDKLIKRILKYEENL”, the “soluble on expression in E. coli” value is given as “not soluble”. The result for “MTDKKPVIVYGVSGYTGRLVCEYLREFNIPFIAAGRDKKRIQEVLDRIPGLDTVDHEVVEVEHTVPALTELFSGARVVSNMVGPFIKHGAIVVEAALAAGCHYTDTTGEQDWVLDVQAKFGEKFAEKGLLLSPGVAQMYTTGEIAANIAL” reads “not soluble”. “MPPATNNSREEKEEETTDLSAGKGDCGIKAAATIYVNCELLGGAKKRKKKVYIIPKKNNISQRKSSSPSPKYFKIDENGKISRLPTGIPTVSIQREAFMTQPTTLRKMSQHPCR”: the “soluble on expression in E. coli” value was “soluble”. “MQASASNSSSYTVNASVLHVRAGSSTSHDIISRVYNGQSLNVIGEENGWYKININGKTGFVSGEFVSKNGTSNSNVSTTGGKNKVTADVLRVRTAPNTSSSVSGRVYEGQTLNVIGQENGWVKINHNGQVGYVSGEFVSGVSSNAGSSNSNTNNNNQESVKPASGNYTVNVSSLRVRTGPSTSHTTVGSVTKGQVVQVVGEVQDWFKINYAGQTAYVSKDYVTKGGSSDNVTQGNNQNNNQNNNVTVQTGGTYVVNATSLRVRTGPATYHSVIGGVLNGTTLNVIGSEGSWFKVNYQGKTGYVSSEFMKFVKGGTTTPEQPKQPEQPNQGAIGDYYINASALNVRSGEGTNYRIIGALPQGQKVQVISENSGWSKINYNGQTGYIGTRYLSKTPVGGAVDNNKPNNNQNNNQNNNNNTGNNSGNSSSILAYAKGMQGVPYVWGGTSANGVDCSGYIYHVFKKFGHNISRQSVAGYWGSLPQTSNPQPGDLIYFQNTYKSGPSHMGIYLGGGSFIQAGDKGVAIASLSNSYWKSHFLGYTKAPLEHHHHHH”: the “soluble on expression in E. coli” value is given as “soluble”.

Consider “MPREYDNLICYKQLSIDDHGKLKFFLEKHSTKEGTWGKLSLSEGEIDFIFQNGLGQELSRIRLDKNNRQLSIPPASWHKIIPISASFNAQLGFYCKPHRYFNKKYGLTEVHRDLLYVYHTYLSHLGSLTTLDVGCGSGRNLLYLTQLGHIVTGIDINQTALENIQIIAQKENLSLLNILSQDLNQPQALAPDHYDFVCSTVTLQFLNASRIPSLLIELQEATKKNGYHFLVFPVQSELYSLPSSFTFLPKQEELYHFYQDSGWSILEYKESVGHLHKQDEMGRPVQGLFALLLAQKVLLEHHHHHH”, for which the “soluble on expression in E. coli” value is listed as “not soluble”. Then “QTQTVAIIGMGSRGLSILEQLIGMSRHADQQPLQIEVFDPQPPGSGLHSAQQPDYLMLNTMAGQLSAFSSAFPACEPAGWTFLQWCGAQDVRLDERGHVSTNGLGRPVAFGDFVPRALLGRYLQHSYRFLLQQCPAHVQVRHYAERVIKCRSRSDAPGFRLRSLTREMNVDALFLTVGHASSATELQDVGATVAIEGLGLTAMDTLASLTQGRGGRYVRDAGFAGWRYLPSGREPRVFMYSRSGLPFHARPHWYPTRHAALPRLFFTAVAIGDLRKQNGGGQLDFQADVLPLIKDEMRAVFYQTKVRLDAPRQLEAVQRTLREAVARPALFARLAEQWGEFDPEQWLTTQRWTGEAGTYGQWFVEWIKRDLALSRLGTAHSPIRQALEVWRDCRDLLRLVADRNGLTESSTLAFYDTWAGLGNRLVGGPQKERHEDLLALIDAGVVTVLAPMSDAQQADSRFDSVMAARVAPSGLSGNRSALLDDLREQGL”, with “not soluble”; and “EPAHGRQHTPCLFCDRLFASAEETFSHCKLEHQFNIDSMVHKHGLEFYGYIKLINFIRLKNPTVEYMNSIYNPVPWEKDEYLKPVLEDDLLLQFDVEDLYEPVSTPFS”, with “soluble”. Regarding “SMGGRRAVRVWCDGCYDMVHYGHSNQLRQARAMGDYLIVGVHTDEEIAKHKGPPVFTQEERYKMVQAIKWVDEVVPAAPYVTTLETLDKYNCDFCVHGNDITLTVDGRDTYEEVKQAGRYRECKRTQGVSTTDLVGRMLLVTKAHHSSQEMSSEYREYADSFGKCPGGRNPWTGVSQFLQTSQKIIQFASGKEPQPGETVIYVAGAFDLFHIGHVDFLEKVHRLAERPYIIAGLHFDQEVNHYKGKNYPIMNLHERTLSVLACRYVSEVVIGAPYAVTAELLSHFKVDLVCHGKTEIIPDRDGSDPYQEPKRRGIFRQIDSGSNLTTDLIVQRIITNRLEY”, the “soluble on expression in E. coli” value is “soluble”.

For the sequence “MEEPINVLLLGMDIGDTSDVSNKDAKRTDTIILANFDPITKEAKLISIPRDTRVKIGGKSQKINAAYPIGGEKLVKQLVGNILGVKVDYVVKVDYEGFRGIIDAIGGIDMYIEQDMNYDDPGQDLHIHFNKGETVHLDGKKAEEFFRWRKNNDGTGLVNGDVDRIKNQQKFINAVIDKVLSVSTITKIDSIAEILNKNIETNIPLDVTVAYGLKGLETDKNNIKMMTLPGEGKYVGNVSYYIPDEKATKELRSQLNSSNLSGRKNVIPSAARGDLSIKVLNCTKINGLAANVQKQLNENGYDKVDVGNGDPREKSEILIKDESSRAFMENDLKIENIKKGISSKYDGNGTYDVVILLGKDFKNFGEMKLEHHHHHH”, the “soluble on expression in E. coli” value is “soluble”.

The record behind these values is the DeepSol protein solubility set.
